# Assay results: patent US10920254B2, “Methods and materials for producing 5 and 7-carbon monomers” (INVISTA North America S.á.r.l., priority 2015, dated 2021)
# Experiment: carboxylate reductase enzyme activity assay (pimelate to pimelate semialdehyde), NADPH consumption at 340 nm
# Type: biochemical
# Conditions: purified enzyme enhanced by gene product of sfp; 2 mM pimelate, 1 mM ATP, 1 mM NADPH, pH 7.5, room temperature, 20 min; FIG. 8
# Protocol: A nucleotide sequence encoding a HIS-tag was added to the nucleic acid sequences from Segniliparus rugosus and Segniliparus rotundus that encode the carboxylate reductases of SEQ ID NOs: 4 (EFV11917.1) and 6 (ADG98140.1), respectively (see FIG. 6C and FIG. 6E), such that N-terminal HIS tagged carboxylate reductases could be produced. Each of the modified genes was cloned into a pET Duet expression vector along with a sfp gene encoding a HIS-tagged phosphopantetheine transferase from Bacillus subtilis, both under the T7 promoter. Each expression vector was transformed into a BL21[DE3] E. coli host and the resulting recombinant E. coli strains were cultivated at 37° C. in a 250 mL shake flask culture containing 50 mL LB media and antibiotic selection pressure, with shaking at 230 rpm. Each culture was induced overnight at 37° C. using an auto-induction media.
# The pellet from each induced shake flask culture was harvested via centrifugation. Each pellet was resuspended and lysed via sonication, and the cell debris was separated from the supernatant via centrifugation. […]
# Enzyme activity assays (i.e., from pimelate to pimelate semialdehyde) were performed in triplicate in a buffer composed of a final concentration of 50 mM HEPES buffer (pH=7.5), 2 mM pimelate, 10 mM MgCl2, 1 mM ATP, and 1 mM NADPH. […] The consumption of NADPH was monitored by absorbance at 340 nm. […]
molecule,measurement,value
"SEQ ID NO: 4: Segniliparus rugosus carboxylate reductase, N-terminal HIS tagged (protein, listed as Segniliparus rugosus, N-terminal His tag, Segniliparus rugosus carboxylate reductase, N-terminal HIS tagged) MGDGEERAKRFFQRIGELSATDPQFAAAAPDPAVVEAVSDPSLSFTRYLDTLMRGYAERPALAHRVGAGYETISYGELWARVGAIAAAWQADGLAPGDFVATVGFTSPDYVAVDLAAARSGLVSVPLQAGASLAQLVGILEETEPKVLAASASSLEGAVACALAAPSVQRLVVFDLRGPDASESAADERRGALADAEEQLARAGRAVVVETLADLAARGEALPEAPLFEPAEGEDPLALLIYTSGSTGAPKGAMYSQRLVSQLWGRTPVVPGMPNISLHYMPLSHSYGRAVLAGALSAGGTAHFTANSDLSTLFEDIALARPTFLALVPRVCEMLFQESQRGQDVAELRERVLGGRLLVAVCGSAPLSPEMRAFMEEVLGFPLLDGYGSTEALGVMRNGIIQRPPVIDYKLVDVPELGYRTTDKPYPRGELCIRSTSLISGYYKRPEITAEVFDAQGYYKTGDVMAEIAPDHLVYVDRSKNVLKLSQGEFVAVAKLEAAYGTSPYVKQIFVYGNSERSFLLAVVVPNAEVLGARDQEEAKPLIAASLQKIAKEAGLQSYEVPRDFLIETEPFTTQNGLLSEVGKLLRPKLKARYGEALEARYDEIAHGQADELRALRDGAGQRPVVETVVRAAVAISGSEGAEVGPEANFADLGGDSLSALSLANLLHDVFEVEVPVRIIIGPTASLAGIAKHIEAERAGASAPTAASVHGAGATRIRASELTLEKFLPEDLLAAAKGLPAADQVRTVLLTGANGWLGRFLALEQLERLARSGQDGGKLICLVRGKDAAAARRRIEETLGTDPALAARFAELAEGRLEVVPGDVGEPKFGLDDAAWDRLAEEVDVIVHPAALVNHVLPYHQLFGPNVVGTAEIIRLAITAKRKPVTYLSTVAVAAGVEPSSFEEDGDIRAVVPERPLGDGYANGYGNSKWAGEVLLREAHELVGLPVAVFRSDMILAHTRYTGQLNVPDQFTRLVLSLLATGIAPKSFYQQGAAGERQRAHYDGIPVDFTAEAITTLGAEPSWFDGGAGFRSFDVFNPHHDGVGLDEFVDWLIEAGHPISRIDDHKEWFARFETAVRGLPEAQRQHSLLPLLRAYSFPHPPVDGSVYPTGKFQGAVKAAQVGSDHDVPHLGKALIVKYADDLKALGLL","acceptance of pimelate as substrate (NADPH consumption), confirmed against the empty vector control",accepted pimelate as substrate
